Reference: article PMC7083938 (2020)

T1: biotinylated mouse Robo3 FN1–3 (Avi-tagged) (mouse, UniProt Q9Z2I4 558-869, biotin on the Avi-tag (BirA))
T1 chain: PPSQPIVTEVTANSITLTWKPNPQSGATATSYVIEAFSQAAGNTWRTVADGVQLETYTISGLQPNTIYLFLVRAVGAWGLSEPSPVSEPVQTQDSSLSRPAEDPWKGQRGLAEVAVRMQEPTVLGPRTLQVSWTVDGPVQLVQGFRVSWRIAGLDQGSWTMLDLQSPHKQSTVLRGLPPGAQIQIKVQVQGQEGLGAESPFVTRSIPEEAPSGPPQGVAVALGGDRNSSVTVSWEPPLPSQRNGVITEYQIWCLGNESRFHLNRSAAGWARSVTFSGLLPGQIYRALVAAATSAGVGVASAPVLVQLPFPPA


Target: T1, biotinylated mouse Robo3 FN1–3 …
Test: SPR

Kd [µM] | Binder
87 | mouse NELL2 EGF1–6 R448A/Y450A (domain or fragment) not shown
0.71 | mouse NELL2 EGF1–6, wild type (domain or fragment) not shown
~400 | mouse NELL2 EGF1–6 L498A/F500A (domain or fragment) not shown
